# Data reported in article PMC12431857, “A multichaperone condensate enhances protein folding in the endoplasmic reticulum” (Nature Cell Biology, 2025).
# Where a chain is given by its changes, count along the chain named. Numbers in names are those of the source.
# B1: 21-residue peptide corresponding to the a0-a linker of PDIA6 (peptide)
# peptide: GGRSGGYSSGKQGRSDSSSKK
# notes: linker between domains a0 and a of human PDIA6; Limits worked out from the printed positions R142, K150, R153, K159, K160 of the linker mutants; also called linker peptide
# B2: Human PDIA6 lacking its ER signal sequence (residues 19-440) (natural protein, UniProt Q15084-1 19-440, looked up)
# chain: GLYSSSDDVIELTPSNFNREVIQSDSLWLVEFYAPWCGHCQRLTPEWKKAATALKDVVKVGAVDADKHHSLGGQYGVQGFPTIKIFGSNKNRPEDYQGGRTGEAIVDAALSALRQLVKDRLGGRSGGYSSGKQGRSDSSSKKDVIELTDDSFDKNVLDSEDVWMVEFYAPWCGHCKNLEPEWAAAASEVKEQTKGKVKLAAVDATVNQVLASRYGIRGFPTIKIFQKGESPVDYDGGRTRSDIVSRALDLFSDNAPPPELLEIINEDIAKRTCEEHQLCVVAVLPHILDTGAAGRNSYLEVLLKLADKYKKKMWGWLWTEAGAQSELETALGIGGFGYPAMAAINARKMKFALLKGSFSEQGINEFLRELSFGRGSTAPVGGGAFPTIVEREPWDGRDGELPVEDDIDLSDVELDDLGKDEL
# notes: Homodimer by SEC-MALS; Isotope-labelled (methyl labelling) for NMR; also called PDIA6 WT; PDIA6 full-length; not shown: His6, N-terminal, cleaved
# B3: PDIA6 5x linker mutant (R142Q, K150N, R153Q, K159N and K160N) (natural protein, human, UniProt Q15084 19-440, looked up)
# chain: B2 chain with R124Q, K132N, R135Q, K141N, K142N
# notes: PDIA6, human, residues 19-440; source: E. coli BL21-(DE3)-Lemo, purified as the WT protein; not shown: His6, N-terminal, cleaved
# B4: PDIA6 (K150N, R153Q, K159N) linker mutant (natural protein, human, UniProt Q15084 19-440, looked up)
# chain: B2 chain with K132N, R135Q, K141N
# notes: as for B3
# B5: PDIA6 (R142Q, K150N, R153Q) linker mutant (natural protein, human, UniProt Q15084 19-440, looked up)
# chain: B2 chain with R124Q, K132N, R135Q
# notes: as for B3
# B6: DyLight 488-PDIA6 (N-terminally tagged, residues 19-440) (natural protein, human, UniProt Q15084 19-440, looked up)
# chain: B2 chain
# modifications: DyLight 488 amine-reactive dye on the N-terminus
# notes: Same construct as m1, fluorescently labelled for MST (0.75-1.5 moles dye per mole protein); not shown: His6, N-terminal, cleaved
# B7: PDIA6 his-domain ab (residues 161-440) (domain or fragment, human, UniProt Q15084 161-440, looked up)
# chain: DVIELTDDSFDKNVLDSEDVWMVEFYAPWCGHCKNLEPEWAAAASEVKEQTKGKVKLAAVDATVNQVLASRYGIRGFPTIKIFQKGESPVDYDGGRTRSDIVSRALDLFSDNAPPPELLEIINEDIAKRTCEEHQLCVVAVLPHILDTGAAGRNSYLEVLLKLADKYKKKMWGWLWTEAGAQSELETALGIGGFGYPAMAAINARKMKFALLKGSFSEQGINEFLRELSFGRGSTAPVGGGAFPTIVEREPWDGRDGELPVEDDIDLSDVELDDLGKDEL
# notes: PDIA6, human, domains a and b with the C-terminal tail, residues 161-440; also called PDIA6 domain ab; his-TEV-domain ab; source: E. coli BL21-(DE3)-Lemo, purified (Ni-NTA, SEC); not shown: His6, N-terminal, kept
# Columns and labels:
# [1] = target: B2; test: NMR titration; 2D [13C,1H]-HMQC of methyl-labelled full-length PDIA6 with 10 mM Ca2+, 10 eq. linker peptide added, no crowding agent, 37 °C; read-out: populations of conformations P and O of domain b; also after addition of 1 M KCl; conditions: both partners purified
# [2] = target: the molecule itself; test: SEC-MALS; S200 10/300 GL column, 25 °C, SEC buffer (25 mM HEPES pH 7.5, 150 mM KCl, 10 mM MgCl2); proteins eluted at 20 μM
# [3] = target: T1, Human BiP lacking its ER signal sequence (residues 19-654) (human, UniProt P11021 19-654); test: NMR titration; 2D [13C,1H]-HMQC or [15N,1H]-HSQC of 100 μM labelled protein without and with 2 eq. of the unlabelled partner; chemical shift perturbation mapping; 37 °C; conditions: both partners purified
# T1 construct: Isotope-labelled (Ile, Met, Val methyl groups) where it was the observed protein in NMR; also called Hsp70 BiP; GRP78; not shown: His6, N-terminal, cleaved
# T1 sequence (P11021 19-654): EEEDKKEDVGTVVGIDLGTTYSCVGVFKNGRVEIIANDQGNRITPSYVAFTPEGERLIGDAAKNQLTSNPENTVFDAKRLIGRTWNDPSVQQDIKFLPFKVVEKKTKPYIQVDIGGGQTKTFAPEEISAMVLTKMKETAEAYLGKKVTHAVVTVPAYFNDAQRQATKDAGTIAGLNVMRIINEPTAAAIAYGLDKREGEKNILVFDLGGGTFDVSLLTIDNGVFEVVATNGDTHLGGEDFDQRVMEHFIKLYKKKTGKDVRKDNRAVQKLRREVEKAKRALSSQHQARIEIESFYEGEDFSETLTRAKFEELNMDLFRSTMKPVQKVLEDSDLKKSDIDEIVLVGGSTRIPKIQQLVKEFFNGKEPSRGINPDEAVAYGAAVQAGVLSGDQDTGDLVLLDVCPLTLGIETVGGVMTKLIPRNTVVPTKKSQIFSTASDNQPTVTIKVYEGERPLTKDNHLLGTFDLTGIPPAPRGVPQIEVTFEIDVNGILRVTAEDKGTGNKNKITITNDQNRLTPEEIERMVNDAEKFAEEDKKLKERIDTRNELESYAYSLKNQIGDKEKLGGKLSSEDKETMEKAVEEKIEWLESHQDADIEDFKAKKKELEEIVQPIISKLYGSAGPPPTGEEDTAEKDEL
# [4] = target: T1, Human BiP lacking its ER signal …; test: MST; 20 nM N-terminally tagged DyLight 488-PDIA6 with increasing BiP; SEC buffer with 5 mM ADP, 1 mM KH2PO4/K2HPO4, 0.05% Tween, 1 mM CaCl2; 30 min at 25 °C; Monolith NT.115; triplicates; conditions: both partners purified
Binder,stoichiometry N [2],also measured
B1,,binding result [1]: binds
B2,2,binding result [3]: binds
B3,2,
B4,2,
B5,2,
B6,,Kd [4]: ~50 µM
B7,,binding result [3]: binds
